# Measured values as given in article PMC1635299.
# B1: Msx2 promoter Dlx2 site probe (dsDNA)
# DNA 1: GATCCGGGTAGAGATTAGTTGAATATCCCTTGGGGATC
# DNA 2: GATCCCCAAGGGATATTCAACTAATCTCTACCCGGATC
# Tests used:
# Dlx2 = Dlx2 (UniProt P40764 1-332); assay: EMSA
# Msx2 = Msx2 (UniProt Q03358 1-267); assay: EMSA
# Msx2, sequence (Q03358 whole entry): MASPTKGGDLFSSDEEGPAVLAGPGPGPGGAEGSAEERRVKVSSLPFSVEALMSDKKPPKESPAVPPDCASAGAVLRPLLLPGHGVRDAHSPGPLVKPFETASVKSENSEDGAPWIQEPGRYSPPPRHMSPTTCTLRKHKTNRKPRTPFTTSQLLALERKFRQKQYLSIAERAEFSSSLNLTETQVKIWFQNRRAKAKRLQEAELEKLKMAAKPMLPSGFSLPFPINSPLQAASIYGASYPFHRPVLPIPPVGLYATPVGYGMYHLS
# Dlx2, sequence (P40764 whole entry): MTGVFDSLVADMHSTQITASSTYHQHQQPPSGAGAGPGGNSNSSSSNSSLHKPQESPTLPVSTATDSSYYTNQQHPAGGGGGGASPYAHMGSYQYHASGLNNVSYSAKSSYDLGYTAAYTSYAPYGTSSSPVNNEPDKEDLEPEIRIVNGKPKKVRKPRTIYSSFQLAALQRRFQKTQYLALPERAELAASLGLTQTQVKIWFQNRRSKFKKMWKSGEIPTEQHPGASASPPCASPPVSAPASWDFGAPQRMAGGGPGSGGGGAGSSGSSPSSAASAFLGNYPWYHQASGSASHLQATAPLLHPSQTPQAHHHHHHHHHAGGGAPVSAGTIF
binder,measurement,setting,value
B1,binding result,Dlx2,binds
same,binding result,Msx2,binds
